In US20200270325A1 (Merck Sharp & Dohme, published 2020):
Numbered stars: 1 amine (or outer) side, 2 acyl side, 3 side chain; on linkers, the order of the positions; unused ones are H or OH. Square brackets hold non-standard residues; d marks the D form. Primed or numbered codes have the meaning given here. Side chains are listed from the residue outwards. Ends that are not written are not given here. * marks the point of attachment. Phe(4-CH2NH2) = NCc1ccc(C[C@H](N)C(=O)O)cc1; C18 diacid = O=C(O)CCCCCCCCCCCCCCCCC(=O)*; αMeW = C[C@](N)(Cc1c[nH]c2ccccc12)C(=O)O; C16 diacid = O=C(O)CCCCCCCCCCCCCCC(=O)*; γGlu = O=C(O)[C@H](CCC(=O)[*:2])N[*:1]; Met(O2) = CS(=O)(=O)CC[C@H](N)C(=O)O; αMeD = C[C@](N)(CC(=O)O)C(=O)O; αMeS = C[C@](N)(CO)C(=O)O; PEG2′ = not defined here; AEEA = NCCOCCOCC(=O)O; Aib = CC(C)(N)C(=O)O

B1: TP621 (peptide)
peptide: H[αMeS]QGTFTSDYSKYLD[Aib]RAAQK([AEEA-AEEA-γGlu-C18 diacid])FVQWL[Met(O2)][αMeD]T-NH2
modifications: N-terminus assumed
SMILES: CC(C)C[C@H](NC(=O)[C@H](Cc1ccc(O)cc1)NC(=O)[C@H](CCCCN)NC(=O)[C@H](CO)NC(=O)[C@H](Cc1ccc(O)cc1)NC(=O)[C@H](CC(=O)O)NC(=O)[C@H](CO)NC(=O)[C@@H](NC(=O)[C@H](Cc1ccccc1)NC(=O)[C@@H](NC(=O)CNC(=O)[C@H](CCC(N)=O)NC(=O)[C@](C)(CO)NC(=O)[C@@H](N)Cc1c[nH]cn1)[C@@H](C)O)[C@@H](C)O)C(=O)N[C@@H](CC(=O)O)C(=O)NC(C)(C)C(=O)N[C@@H](CCCNC(=N)N)C(=O)N[C@@H](C)C(=O)N[C@@H](C)C(=O)N[C@@H](CCC(N)=O)C(=O)N[C@@H](CCCCNC(=O)COCCOCCNC(=O)COCCOCCNC(=O)CC[C@H](NC(=O)CCCCCCCCCCCCCCCCC(=O)O)C(=O)O)C(=O)N[C@@H](Cc1ccccc1)C(=O)N[C@H](C(=O)N[C@@H](CCC(N)=O)C(=O)N[C@@H](Cc1c[nH]c2ccccc12)C(=O)N[C@@H](CC(C)C)C(=O)N[C@@H](CCS(C)(=O)=O)C(=O)N[C@@](C)(CC(=O)O)C(=O)N[C@H](C(N)=O)[C@@H](C)O)C(C)C
B2: TP622 (peptide)
peptide: H[Aib]QGTFTSD[Phe(4-CH2NH2)]([AEEA-γGlu-C16 diacid])SKYLDARAAQDFVQWL[Met(O2)]DT-NH2
modifications: N-terminus assumed
SMILES: CC(C)C[C@H](NC(=O)[C@H](Cc1ccc(O)cc1)NC(=O)[C@H](CCCCN)NC(=O)[C@H](CO)NC(=O)[C@H](Cc1ccc(CNC(=O)COCCOCCNC(=O)CC[C@H](NC(=O)CCCCCCCCCCCCCCC(=O)O)C(=O)O)cc1)NC(=O)[C@H](CC(=O)O)NC(=O)[C@H](CO)NC(=O)[C@@H](NC(=O)[C@H](Cc1ccccc1)NC(=O)[C@@H](NC(=O)CNC(=O)[C@H](CCC(N)=O)NC(=O)C(C)(C)NC(=O)[C@@H](N)Cc1c[nH]cn1)[C@@H](C)O)[C@@H](C)O)C(=O)N[C@@H](CC(=O)O)C(=O)N[C@@H](C)C(=O)N[C@@H](CCCNC(=N)N)C(=O)N[C@@H](C)C(=O)N[C@@H](C)C(=O)N[C@@H](CCC(N)=O)C(=O)N[C@@H](CC(=O)O)C(=O)N[C@@H](Cc1ccccc1)C(=O)N[C@H](C(=O)N[C@@H](CCC(N)=O)C(=O)N[C@@H](Cc1c[nH]c2ccccc12)C(=O)N[C@@H](CC(C)C)C(=O)N[C@@H](CCS(C)(=O)=O)C(=O)N[C@@H](CC(=O)O)C(=O)N[C@H](C(N)=O)[C@@H](C)O)C(C)C
B3: TP618 (peptide)
peptide: H[αMeS]QGTFTSDYSKYLD[Aib]RAAK([AEEA-AEEA-γGlu-C16 diacid])DFVQWL[Met(O2)][αMeD]T-NH2
modifications: N-terminus assumed
SMILES: CC(C)C[C@H](NC(=O)[C@H](Cc1ccc(O)cc1)NC(=O)[C@H](CCCCN)NC(=O)[C@H](CO)NC(=O)[C@H](Cc1ccc(O)cc1)NC(=O)[C@H](CC(=O)O)NC(=O)[C@H](CO)NC(=O)[C@@H](NC(=O)[C@H](Cc1ccccc1)NC(=O)[C@@H](NC(=O)CNC(=O)[C@H](CCC(N)=O)NC(=O)[C@](C)(CO)NC(=O)[C@@H](N)Cc1c[nH]cn1)[C@@H](C)O)[C@@H](C)O)C(=O)N[C@@H](CC(=O)O)C(=O)NC(C)(C)C(=O)N[C@@H](CCCNC(=N)N)C(=O)N[C@@H](C)C(=O)N[C@@H](C)C(=O)N[C@@H](CCCCNC(=O)COCCOCCNC(=O)COCCOCCNC(=O)CC[C@H](NC(=O)CCCCCCCCCCCCCCC(=O)O)C(=O)O)C(=O)N[C@@H](CC(=O)O)C(=O)N[C@@H](Cc1ccccc1)C(=O)N[C@H](C(=O)N[C@@H](CCC(N)=O)C(=O)N[C@@H](Cc1c[nH]c2ccccc12)C(=O)N[C@@H](CC(C)C)C(=O)N[C@@H](CCS(C)(=O)=O)C(=O)N[C@@](C)(CC(=O)O)C(=O)N[C@H](C(N)=O)[C@@H](C)O)C(C)C
B4: TP624 (peptide)
peptide: H[Aib]QGTFTSD[Phe(4-CH2NH2)]([AEEA-AEEA-γGlu-C18 diacid])SKYLDARAAQDFVQWL[Met(O2)][αMeD]T-NH2
modifications: N-terminus assumed
SMILES: CC(C)C[C@H](NC(=O)[C@H](Cc1ccc(O)cc1)NC(=O)[C@H](CCCCN)NC(=O)[C@H](CO)NC(=O)[C@H](Cc1ccc(CNC(=O)COCCOCCNC(=O)COCCOCCNC(=O)CC[C@H](NC(=O)CCCCCCCCCCCCCCCCC(=O)O)C(=O)O)cc1)NC(=O)[C@H](CC(=O)O)NC(=O)[C@H](CO)NC(=O)[C@@H](NC(=O)[C@H](Cc1ccccc1)NC(=O)[C@@H](NC(=O)CNC(=O)[C@H](CCC(N)=O)NC(=O)C(C)(C)NC(=O)[C@@H](N)Cc1c[nH]cn1)[C@@H](C)O)[C@@H](C)O)C(=O)N[C@@H](CC(=O)O)C(=O)N[C@@H](C)C(=O)N[C@@H](CCCNC(=N)N)C(=O)N[C@@H](C)C(=O)N[C@@H](C)C(=O)N[C@@H](CCC(N)=O)C(=O)N[C@@H](CC(=O)O)C(=O)N[C@@H](Cc1ccccc1)C(=O)N[C@H](C(=O)N[C@@H](CCC(N)=O)C(=O)N[C@@H](Cc1c[nH]c2ccccc12)C(=O)N[C@@H](CC(C)C)C(=O)N[C@@H](CCS(C)(=O)=O)C(=O)N[C@@](C)(CC(=O)O)C(=O)N[C@H](C(N)=O)[C@@H](C)O)C(C)C
B5: TP623 (peptide)
peptide: H[Aib]QGTFTSD[Phe(4-CH2NH2)]([AEEA-γGlu-C18 diacid])SKYLDARAAQDFVQWL[Met(O2)]DT-NH2
modifications: N-terminus assumed
SMILES: CC(C)C[C@H](NC(=O)[C@H](Cc1ccc(O)cc1)NC(=O)[C@H](CCCCN)NC(=O)[C@H](CO)NC(=O)[C@H](Cc1ccc(CNC(=O)COCCOCCNC(=O)CC[C@H](NC(=O)CCCCCCCCCCCCCCCCC(=O)O)C(=O)O)cc1)NC(=O)[C@H](CC(=O)O)NC(=O)[C@H](CO)NC(=O)[C@@H](NC(=O)[C@H](Cc1ccccc1)NC(=O)[C@@H](NC(=O)CNC(=O)[C@H](CCC(N)=O)NC(=O)C(C)(C)NC(=O)[C@@H](N)Cc1c[nH]cn1)[C@@H](C)O)[C@@H](C)O)C(=O)N[C@@H](CC(=O)O)C(=O)N[C@@H](C)C(=O)N[C@@H](CCCNC(=N)N)C(=O)N[C@@H](C)C(=O)N[C@@H](C)C(=O)N[C@@H](CCC(N)=O)C(=O)N[C@@H](CC(=O)O)C(=O)N[C@@H](Cc1ccccc1)C(=O)N[C@H](C(=O)N[C@@H](CCC(N)=O)C(=O)N[C@@H](Cc1c[nH]c2ccccc12)C(=O)N[C@@H](CC(C)C)C(=O)N[C@@H](CCS(C)(=O)=O)C(=O)N[C@@H](CC(=O)O)C(=O)N[C@H](C(N)=O)[C@@H](C)O)C(C)C
B6: TP620 (peptide)
peptide: H[αMeS]QGTFTSDYSKYLD[Aib]RAAK([AEEA-AEEA-γGlu-C18 diacid])DFVQWL[Met(O2)][αMeD]T-NH2
modifications: N-terminus assumed
SMILES: CC(C)C[C@H](NC(=O)[C@H](Cc1ccc(O)cc1)NC(=O)[C@H](CCCCN)NC(=O)[C@H](CO)NC(=O)[C@H](Cc1ccc(O)cc1)NC(=O)[C@H](CC(=O)O)NC(=O)[C@H](CO)NC(=O)[C@@H](NC(=O)[C@H](Cc1ccccc1)NC(=O)[C@@H](NC(=O)CNC(=O)[C@H](CCC(N)=O)NC(=O)[C@](C)(CO)NC(=O)[C@@H](N)Cc1c[nH]cn1)[C@@H](C)O)[C@@H](C)O)C(=O)N[C@@H](CC(=O)O)C(=O)NC(C)(C)C(=O)N[C@@H](CCCNC(=N)N)C(=O)N[C@@H](C)C(=O)N[C@@H](C)C(=O)N[C@@H](CCCCNC(=O)COCCOCCNC(=O)COCCOCCNC(=O)CC[C@H](NC(=O)CCCCCCCCCCCCCCCCC(=O)O)C(=O)O)C(=O)N[C@@H](CC(=O)O)C(=O)N[C@@H](Cc1ccccc1)C(=O)N[C@H](C(=O)N[C@@H](CCC(N)=O)C(=O)N[C@@H](Cc1c[nH]c2ccccc12)C(=O)N[C@@H](CC(C)C)C(=O)N[C@@H](CCS(C)(=O)=O)C(=O)N[C@@](C)(CC(=O)O)C(=O)N[C@H](C(N)=O)[C@@H](C)O)C(C)C
B7: TP625 (peptide)
peptide: H[Aib]QGTFTSD[Phe(4-CH2NH2)]([AEEA-AEEA-γGlu-C18 diacid])SKYLDARAAQDFVQ[αMeW]L[Met(O2)]DT-NH2
modifications: N-terminus assumed
SMILES: CC(C)C[C@H](NC(=O)[C@H](Cc1ccc(O)cc1)NC(=O)[C@H](CCCCN)NC(=O)[C@H](CO)NC(=O)[C@H](Cc1ccc(CNC(=O)COCCOCCNC(=O)COCCOCCNC(=O)CC[C@H](NC(=O)CCCCCCCCCCCCCCCCC(=O)O)C(=O)O)cc1)NC(=O)[C@H](CC(=O)O)NC(=O)[C@H](CO)NC(=O)[C@@H](NC(=O)[C@H](Cc1ccccc1)NC(=O)[C@@H](NC(=O)CNC(=O)[C@H](CCC(N)=O)NC(=O)C(C)(C)NC(=O)[C@@H](N)Cc1c[nH]cn1)[C@@H](C)O)[C@@H](C)O)C(=O)N[C@@H](CC(=O)O)C(=O)N[C@@H](C)C(=O)N[C@@H](CCCNC(=N)N)C(=O)N[C@@H](C)C(=O)N[C@@H](C)C(=O)N[C@@H](CCC(N)=O)C(=O)N[C@@H](CC(=O)O)C(=O)N[C@@H](Cc1ccccc1)C(=O)N[C@H](C(=O)N[C@@H](CCC(N)=O)C(=O)N[C@@](C)(Cc1c[nH]c2ccccc12)C(=O)N[C@@H](CC(C)C)C(=O)N[C@@H](CCS(C)(=O)=O)C(=O)N[C@@H](CC(=O)O)C(=O)N[C@H](C(N)=O)[C@@H](C)O)C(C)C

Assays:
[1] = target: human GLP-1 receptor (GLP1R) (human, UniProt P43220 24-463); assay: cell-based or functional assay
[2] = target: human Glucagon receptor (GCGR) (human, UniProt P47871 26-477); assay: cell-based or functional assay
Sequence of human Glucagon receptor (GCGR) (P47871 26-477): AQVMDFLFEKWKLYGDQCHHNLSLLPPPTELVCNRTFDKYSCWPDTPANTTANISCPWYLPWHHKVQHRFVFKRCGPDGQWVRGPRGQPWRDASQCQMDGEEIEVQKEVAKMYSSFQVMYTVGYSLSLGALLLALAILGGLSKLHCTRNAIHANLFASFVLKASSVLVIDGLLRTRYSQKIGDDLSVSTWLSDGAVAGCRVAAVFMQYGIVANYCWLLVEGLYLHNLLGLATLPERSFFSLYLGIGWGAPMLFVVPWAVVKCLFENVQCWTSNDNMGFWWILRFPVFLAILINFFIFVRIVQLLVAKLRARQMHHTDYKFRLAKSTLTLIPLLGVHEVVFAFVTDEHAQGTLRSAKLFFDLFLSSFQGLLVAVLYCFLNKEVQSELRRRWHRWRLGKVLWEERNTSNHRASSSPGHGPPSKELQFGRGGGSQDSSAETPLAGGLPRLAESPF

| Binder | GLP1R EC50 human [1] | GCGR EC50 human [2] |
| --- | --- | --- |
| B1 | 1.94 nM | 0.25 nM |
| B2 | 0.09 nM | 0.03 nM |
| H[αMS]QGTFTSDYSKYLD[Aib]RAAQK([PEG2′-PEG2′-γGlu-C16 diacid])FVQWL[Met(O2)][αMD]T-NH2 [TP619] | 0.38 nM | 0.05 nM |
| B3 | 2.48 nM | 0.36 nM |
| B4 | 0.89 nM | 1 nM |
| B5 | 0.17 nM | 0.09 nM |
| B6 | 8.58 nM | 1.26 nM |
| B7 | 0.39 nM | 1.3 nM |
